This assay deals with Urokinase plasminogen activator (Homo sapiens (Human)) (UniProt P00749). The assay can be described thus: inhibition of UK activity; Ki by non-linear regression (Enzfitter) of free enzyme versus inhibitor concentration.

Here are results for 1 substance from patent publication US5550213.

pKi: −log10 of the molar value.

The substance “mutant with arginine at the P1 site of OM3TKY (designed binder)” showed a pKi of 5.75.
